Numbering of substitutions follows the chain as printed. Where two headings read alike, the source gives them in different places. No end group written: not given here. *: point of attachment. Biotin = O=C1N[C@H]2[C@H](CS[C@H]2CCCCC(=O)*)N1
T1: PDZ domain of wild type human PALS1 protein (human, UniProt Q8N3R9 256-336)
T1 sequence: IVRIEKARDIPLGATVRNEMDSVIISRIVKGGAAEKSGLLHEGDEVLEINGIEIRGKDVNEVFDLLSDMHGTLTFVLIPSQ

B1: CRB1 C-terminal tetradecapeptide (endogenous PALS1 ligand) (peptide)
peptide: Biotin-MWNLMPPPAMERLI
B2: [change] variant of the PDZ domain of PALS1 (domain or fragment)
chain: T1 sequence with F63W

Key:
Test in all cases: SPR
[1] = target: T1, PDZ domain of wild type human PALS1 …
[2] = target: T1, PDZ domain of wild type human PALS1 …; remark: listed apart in the source
[3] = target: B1

Binder	Kd [2] [µM]	other results
B1		Kd [1]: 5.11 µM
KNLNSSEGVPDLLV [SARS-CoV-1 envelope E protein C-terminal tetradecapeptide]	> 500	
Biotin-VKNLNSSRVPDLLV [SARS-CoV-2 envelope E protein C-terminal tetradecapeptide]	63	
B2		Kd [3]: 18 µM

Source: paper PMC7970798 (Computational and Structural Biotechnology Journal, 2021)
